# From the nanobody polyreactivity screen of Harvey et al. (2022)
# Test: yeast display, Sf9 membrane polyspecificity reagent, FACS + sequencing; frameworks hold sequencing errors
# Procedure, shortened: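 Nanobodies from a synthetic yeast display library (Saccharomyces cerevisiae BJ5465), induced 36–48 hours with galactose, were stained 1 hour at 4 °C with 10% biotinylated, detergent-solubilized Sf9 membrane reagent, enriched on streptavidin microbeads, then FACS-sorted. Anti-HA (expression) and streptavidin (reagent binding) fluorescence set low and high (top ~1%) gates. Polyreactivity labels come from the gate of origin. Genes were colony-PCR amplified, MiSeq 2 × 250 sequenced and filtered by CDR length.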
row,Sequence,polyreactivity (PSR sort gate)
1,QVQLVESGGGLVQAGGSLRLSCAASGSIFGGYTMGWSRQAPGKERELVAGITISGGSTYYADSVKGRFTISRDNAKNTVYLQMNSLKPEDTAVYYCAAVSFVVSSWGYGYWGQGTQVTVSS,low polyreactivity
2,QVQLVESGGGLVQAGGSLRLSCAASGFIFRRYAMGWYRQAPGKERELVAAISGSGGRTYYADSVKGRFTISRDNAKNTVYLQMNSLKPEDTAVYYCAADHGSLLYDYWGQGTQVTVSS,high polyreactivity
3,QVQLVESGGGLVQAGGSLRLSCAASGRIFTYNAMGWYRQAPGKERELVAAITRGGTTNYADSVKGRFTISRDNAKNTVYLQMNSLKPEDTAVYYCARAGAHPWWSRSTMYYWGQGTQVTVSS,low polyreactivity
4,QVQLVESGGGLVQAGGSLRLSCAASGSIFPPNAMGWSRQAPGKERELVAAISFSGGTSTYYADSVKGRFTISRDNAKNTVYLQMNSLKPEDTAVYYCAARKTTRRYHYDYWGQGTQVTVSS,high polyreactivity
5,QVQLVESGGGLVQAGGSLRLSCAASGSTFYRNAMGWYRQAPGKERELVAVITERGGNTYYADSVKGRFTISRDNAKNTVYLQMNSLKPEDTAVYYCNKQGFVDRGRYRYYWGQGTQVTVSS,high polyreactivity
6,QVQLVESGGGLVQAGGSLRLSCAASGIIFTVYDMGWYRQPPGKERELVAAITWSGGSTYYADSVKGRFTISRDNAKNTVYLQMNSLKPEDTAVYYCIKVGRVWDVETDGDYDYWGQGTQVTVSS,low polyreactivity
7,QVQLEESGGGLVQAGGSLRISCAAAGSTFRSNAMGWYRPAPRKERELVAAINSGGSTYYADSVKGRFTISRDNAKNTVYLQMNSLKPEDTAVYYCAARYYTPFGTYRQNIRMYYWGQGTQVTVSS,high polyreactivity
8,QVQLVESGGGLVQAGGSLRLSCAASGRTFVRYAMGWYRQAPGKERELVAAISRTGGTTYYADSVKGRFTISRDNAKNTVYLQMNSLKPVDTAVYYCNADPFYKYGYWGQGTQVTVSS,high polyreactivity
9,QVQLVESGGCLVQAGGSLRLSCAASGSTFPRYAMGWYRQAPGKERELVATINSGGSTYYADSVKGCFTISRDNAKNTVYLQMNSLKPEDTAVYYCAAGYRWTYTSGTYIRYNYWGQGTQVTVSS,high polyreactivity
10,QVQLVESGGGLVQAGGSLRLSCAASGLTFASNALGWYRQAPWKERELVAGISRTGTTTYYADSVKGRFTISRDNAKNTVYLQMNSLKPEDTAVYYCAASKQAVKYRSQRYYYWGQGTQVTVSS,high polyreactivity
11,QVQLVESGGGLVQAGGSLRLSCAASGFTIASNAMGWYRQAPGKERELVAAIRRSGSRTYYADSVKGRFTISRDNAKNTVYLQMNSLKPEDTAVYYCAVVSPRQSYYYWGQGTQVTVSS,high polyreactivity
12,QVQLVESGGGLVQAGGSLRLSCAASGRTFVPNAMGWYRQAPGKERELVAAISWSGDSTYYADSVKGRFTISRDNAKNTVYLQMNSLKPEDTAVYYCAADPFFGVSIGGLKYHFDYWGQGTQVTVSS,low polyreactivity
13,QFQLVESGGGLVQAGGSLRLSCAASGRIFPGYAMGWYRQAPGKERELVAAISERGGSTYYADSVKGRFTISRDHAKNTVYLQMNSLKPEDTAVYYCAAIWRGGYNYWGQGTQVTVSS,low polyreactivity
14,QVQLVESGGGLVQAGGSLRLSCAASGRTFSYNAIGWYRLAPGKERELVARISSGGSTNYADSVKGRFTISRDNAKNTVYLQMNSLKPEDTAVYYCNAVYRTYEYYWGQGTQVTVSS,high polyreactivity
15,RVQLVESGGGLVQAGGILRLSSAASGSTFPANAMGWYRQAPGKERELVAAITWRAASTYYADSVKGRFTISRDNAKNTVYLQMNSLKPEDTAVYYCARVTNSSAKNTDDYWGQGTQVTVSS,low polyreactivity
16,QVQLVESGGGLVQAGGSLRLSCAASGSTFWWYAMGWYRQAPGKERELVADITTGGSTNYADSVKGRFTISRDNAKNTVYLQMNSLKPEDTAVYYCNADGVTPYTWRLRYFKYHFDYWGQGTQVTVSS,low polyreactivity
17,QVQLVESVGGLVQAGGSLRLSCAASGRTFVYNAMGWYRQAPGKEREFVGAISDGGGDTYYADSVKGRFTISRDNAKNTVFLQMNSLKPEVTAVYYCNVEWQQPGYAFDYCGQGTQVTVSS,low polyreactivity
18,QVQLVESGGGLVQAGGSLRLSCAASGFIYEDYAMGWYRQAPGKERELVAAITWRGGRTYYADCVKGRYTISRDNAKNTVYLQMNSLKPEDTAVYYCRPLVYSYASRYGYWGQGTQVTVLS,high polyreactivity
19,QVQLVETGGGLVQAGGSLRLSCAASGFTFGSNAMGWYRQAPGKEREFVAAITYSGGGTYADSVKGRFTISRDNAKHTVDLQMNSLKPEDTAVYYCATDAYRWHYWNFGFGYWGQGTQVTVSS,high polyreactivity
20,QVQLVESGGGLVQAGGSLRLSCAASGSIFGSYALGWYRQAPGKERELVAAISKSGGNTYYADSVKGRFTISRDNAKNTVYLQMNSLKPEDTAVYYCAARYRFLRPKVNYWGQGTQVTVSS,high polyreactivity
21,HVQLVDSGGGLVQAGGSLRLSCAASGFIFRRYAMGWYRQAPGKERELVAAIRSDGSTNYADSVKGRFTISRDNAKNTVYLQLNSLKPEDTAVYYCAATYYSYTWFSQYYYWGQGTQVTVSS,high polyreactivity
22,EVQLVESGGGLVQAGGSLRLSCAASGTSFLLYAMGWYRQARGKERELLAAISSSGARTYYADSVKGRCTISRDNAKYTVYLQMNSLKPEDTAVYYCAASRRAYRSSYVSPFGYWGQGTQVTGSS,high polyreactivity

row,Sequence,polyreactivity (PSR sort gate)
1,QVQLVESGGGLVQAGGSLRLSCAASGFTFRVYAMGWYRQAPGKERELVAVISGTGGRTYYADSVKGRFTISRDIAKNTVYLQMNSLKPEDTAVYYCARRGRPPAIYDYWGQGTQVTVSS,high polyreactivity
2,QVQLVESGGGLVQAGGSLRLSCAASGSIFYFNAMGWYRQAPGKERELVARISGSSGRTYYADSVKGRFTISRDNAKNTVYLQMNSLKPEDTAVYYCAARYYTSATMDYWGQGTQVTVSS,high polyreactivity
3,QVQLVESGGGLVQAGGSLRLSCAASGYTFWHYAMGWYRQAPGKEREFVATISSGGSTYYADSVKGRFTISRDNAMNTVYLQMNSLKPEDTAVYYCAADVDYIGPIYDYWGQGTQVTVSS,low polyreactivity
4,QVQLVESGGGLVQAGGSLRLSCAASGRIFWAYAMGWYRQAPGKERELVAAINGSGGSTNYADSVKGRFTISRDNAKNTVYLQMNSLIPEDTAVYYCAADWSLRLYDYWGQGTQVTVSS,low polyreactivity
5,QVQLVESGGGLVQAGGSLRLSCAASGRTFTGNTMGWYRQAPGKERELVAAISSSGGRTYYADSVKGRFTISRDNAKNTVYLQMNSLKQVDTAVYYCNATIWRTQYGYWGQGTQVTVSS,high polyreactivity
6,QVHLVESGGGLVQAGGSLRLSCAASGSTFTDYTIGWYRQAPGKERELVARIRSRGARTYYADSVKGRFTISRDNAKNTVYLQMNSLKPEDTAVNSCNKRWGCLRASPAYDYWGQGTQVTVSS,high polyreactivity
7,QVQLVESGVGLVQAGGSLRLSCAASGGIFAVYAMGWYIQAPGKERELVAAITWRGGSTRYADSVKGRFTISRDNAKNTVYLQMNSLKPEDTAVYYCAVRSTGYPSRYYYWGQGTQVTVSS,high polyreactivity
8,QVQLVESGGGLVQAAGSLRLSCAASGITFGLYTMGWYRQAPGKERELVAAISWSGGGTYYADSVKGRFTISRDNAKNTVYLQMNSLKPEDTAVYYCAAPVRGSYPYSVGVDYWGQGTQVTVSS,high polyreactivity
9,QVQPVESGGGLVQAGGSLRLSCAASGSTLGHNAMGWYRQAPGKERELVAAITSSGGRTYYADSVKGRFTISRDNAKNTVYLQMNSLKPEDTAVYYCAADDTDYPEYDYWGQGTQVTVSS,high polyreactivity
10,QVQLVESGGGLVQAGGSLRLSCAASGIIFSSYAMGWYRQAPGKERELVAAISRRSGSTYYADSVKGRFTISRDNAKNTVYLQMNSLKPEDTAVYYCNKLPGTPRSLATGDYWGQGTQVTVSS,high polyreactivity
11,QVQLVESGGGLVQAGGSLRLSCAASGRIFGNYAMGWYRQAPGKERELVAAITSGARTYYADSVKGRFTISRDNAKNTVYLQMNSLKPEDTAVYYCAAYHKSYSNRYDYWGQGTHVTVSS,high polyreactivity
12,QVQLQESGDGLVQAVGSLRLSCAASGYISGYYNMGWYRQAPGKERELVAGIDAFGSSTNYADCVKGRFTISRDNAKNTVYLEMNSLKPEDTAVYYFAARPYGDRLFSYWGQGTQVTVSS,low polyreactivity
13,QVQLVESGGGLVQAGGSLRLSCAASGSTFVKNVMGWYRQAPGKERELVAGITRGGSTYYADSVKGRFTISRDNAKNTVYLQMNSLKPEDTAVYYCAAARWSQYRTWMNYWGQGTQVTVSS,high polyreactivity
14,QVQLVESGRGLVQAGGSLRLSCAASGRIYRRNAIGWYRQAPGKERELVAAITWSDGSTYYADSVKGRFTISRDNAKNTVYFQMNSLKPEDTAVYYCNKVTRSPSEYDYWGQGTQVTVSS,high polyreactivity
15,QVHLVESGGGLVQAGGSLRLSSSASGIIFGRNTMGWYRQAPGKEREMVAAITSSGITYYADSVKGRFTISRDNAKNTVYFQMNSLKPEDTAVYYCYSDWTYADPNEYGYWGQGTQVTVSS,low polyreactivity
16,QVQLVESGGGLVQAGGSLRLSCAASGLTFSKYAMGWYRQAPGKERELVAAITRGDRTYYSDSVRGRFTISRDNAKNTVYLQMNRLKPEDTAVYYCAARQYYWGQGTQVTVSS,high polyreactivity
17,QVQLVESGGGLVQAGGSLRLSCAASGSTFYANVMGWYRQAPGKDRELVGAIEGSGGRTDYADSVKGRFTISRDNAKNTVYLQMHSLKPEDTAVYYCAKKRIVPVKQFGRDYNYWGQGTQVTVSS,high polyreactivity
18,QDQLVESGGGLVQAGGSLRLSCAASGSTFTGYTMGWYRQAPGKERELVAAITYRGGSTYYADSVKGRFTISRDNAKNTVYLQMNSLKPEDTAVYYCAAVPEYYEYTPYDYWGQGTQVTVSS,low polyreactivity
19,QVQLVESGGGLVQAGGSLRLSCAASGSTFWSYAMGWYTQAPGKERELVAVITGSDGRTFYADSVKGRFTISRDNAKNTVYLQMNSLKPEDTAVYYCAADAVFRATRYDRSTSEDDYWGQGTQVTVSS,low polyreactivity
20,QVQLVESGGGLVQAGGSLRLSCAASGNTFVRYDMGWYRQAPGKEREFVAAITASGGSTYADSVKGRFTISRDNAKNTVYLQMNSLKPEDTAVYYCNAGNSSTGVDRYDYWGQGTQVTVSS,low polyreactivity
21,QVQLVESGGGLVQAGGSLRLSCAASGLIFGYYAMGWYRQAPGKEREFVAAIDGSDGTTYYADSVKGRFTISRDNAKNTVYLQMTSQKPEDTAVYYCNADSSSYSSDLGYDYWGQGTQVTVSS,low polyreactivity
